The text below walks through data of article PMC9924070 (Science Translational Medicine, 2021).

A value given as a limit tells only on which side of the number the result lay.

Test [1] has as its target T1, mouse IgG1 Fc-fused SARS-CoV-2 RBD (SARS-CoV-2, UniProt P0DTC2). Kind of test: BLI. To be noted: both partners purified.
Test [2] deals with T1, mouse IgG1 Fc-fused SARS-CoV-2 RBD. Nature of the test: BLI. To be noted: both partners purified. This is another data set of the same source.

B1: humVHH/WT-Fc (Fc fusion)
chain: EVQLVESGGGLVQPGGSLRLSCAASGRTFSEYAMGWFRQAPGKEREFVATISWSGGSTYYTDSVKGRFTISRDNAKNTVYLQMNSLRPEDTAVYYCAAAGLGTVVSEWDYDYDYWGQGTLVTVSS
notes: also called VHH72_h1-GS-hIgG1hinge-hIgG1Fc; construct 4
Turning to B1, in test [1], the affinity, expressed as Kd, was 0.1 nM; the koff (commonly the rate constant with which the complex falls apart) was 0.00019 s⁻¹; the kon (usually a measure of how fast the partners come together) worked out at 1.9e+06 M⁻¹ s⁻¹.

B2: humVHH_S56A/LALAPG-Fc/Gen2 (Fc fusion)
chain: DVQLVESGGGLVQPGGSLRLSCAASGRTFSEYAMGWFRQAPGKEREFVATISWSGGATYYTDSVKGRFTISRDNAKNTVYLQMNSLRPEDTAVYYCAAAGLGTVVSEWDYDYDYWGQGTLVTVSS
Consider B2, for which, in test [2], the Kd (usually the equilibrium constant for the complex coming apart) amounted to 0.0408 nM, the koff came to 6.16e-05 s⁻¹ and the kon amounted to 1.52e+06 M⁻¹ s⁻¹.

B3: (humVHH)2/WT-Fc (Fc fusion)
chain: EVQLVESGGGLVQPGGSLRLSCAASGRTFSEYAMGWFRQAPGKEREFVATISWSGGSTYYTDSVKGRFTISRDNAKNTVYLQMNSLRPEDTAVYYCAAAGLGTVVSEWDYDYDYWGQGTLVTVSSGGGGSGGGGSGGGGSEVQLVESGGGLVQPGGSLRLSCAASGRTFSEYAMGWFRQAPGKEREFVATISWSGGSTYYTDSVKGRFTISRDNAKNTVYLQMNSLRPEDTAVYYCAAAGLGTVVSEWDYDYDYWGQGTLVTVSS
In test [2], B3 returned a Kd of under 0.001 nM, a koff of under 1e-07 s⁻¹ and a kon of 2.65e+06 M⁻¹ s⁻¹.

B4: (humVHH_S56A)2/LALAPG-Fc/Gen2 (Fc fusion)
chain: DVQLVESGGGLVQPGGSLRLSCAASGRTFSEYAMGWFRQAPGKEREFVATISWSGGATYYTDSVKGRFTISRDNAKNTVYLQMNSLRPEDTAVYYCAAAGLGTVVSEWDYDYDYWGQGTLVTVSSGGGGSGGGGSGGGGSDVQLVESGGGLVQPGGSLRLSCAASGRTFSEYAMGWFRQAPGKEREFVATISWSGGATYYTDSVKGRFTISRDNAKNTVYLQMNSLRPEDTAVYYCAAAGLGTVVSEWDYDYDYWGQGTLVTVSS
Turning to B4, in test [2], the Kd was under 0.001 nM, the koff is under 1e-07 s⁻¹ and the kon stood at 2.48e+06 M⁻¹ s⁻¹.
